Measured values taken from publication PMC4914107 (Nucleic Acids Research, 2016).
Read-outs that look alike come from different tables or passages of the source.

Experiments:
RAD51 (purified) [1] = target: T1, RAD51 (purified) (UniProt Q06609 1-339); assay: pull-down
T1 sequence (looked up): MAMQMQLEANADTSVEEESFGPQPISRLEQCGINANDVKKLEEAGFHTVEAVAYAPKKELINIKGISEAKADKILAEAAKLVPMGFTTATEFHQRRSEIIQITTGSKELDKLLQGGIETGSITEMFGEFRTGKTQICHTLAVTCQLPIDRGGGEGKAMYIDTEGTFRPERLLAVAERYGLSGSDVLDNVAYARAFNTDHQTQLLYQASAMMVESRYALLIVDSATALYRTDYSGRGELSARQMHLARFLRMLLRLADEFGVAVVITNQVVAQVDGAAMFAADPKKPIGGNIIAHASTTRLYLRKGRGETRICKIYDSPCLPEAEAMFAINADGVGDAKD

RAD51 (purified) [2] = target: T1, RAD51 (purified); assay: pull-down; remark: listed apart in the source

B1: 2XMBP-BRC4-DBD (domain or fragment, human)
chain: PVGTGNQLVTFQGQPERDEKIKEPTLLGFHTASGKKVKIAKESLDKVKNLFDEKEQGTSEITSFSHQWAKTLKYREACKDLELACETIEITAAPGGGSPYLSQFQQDKQQLVLGTKVSLVENIHVLGKEQASPKNVKMEIGKTETFSDVPVKTNIEVCSTYSKDSENYFETEAVEIAKAFMEDDELTDSKLPSHATHSLFTCPENEEMVLSNSRIGKRRGEPLILVGEPSIKRNLLNEFDRIIENQEKSLKASKSTPDGTIKDRRLFMHHVSLEPITCVPFRTTKERQEIQNPNFTAPGQEFLSKSHLYEHLTLEKSSSNLAVSGHPFYQVSATRNEKMRHLITTGRPTKVFVPPFKTKSHFHRVEQCVRNINLEENRQKQNIDGHGSDDSKNKINDNEIHQFNKNNSNQAVAVTFTKCEEEPLDLITSLQNARDIQDMRIKKKQRQRVFPQPGSLYLAKTSTLPRISLKAAVGGQVPSACSHKQLYTYGVSKHCIKINSKNAESFQFHTEDYFGKESLWTGKGIQLADGGWLIPSNDGKAGKEEFYRALCDTPGVDPKLISRIWVYNHYRWIIWKLAAMECAFPKEFANRCLSPERVLLQLKYRYDTEIDRSRRSAIKKIMERDDTAAKTLVLCVSDIISLSANISETSSNKTSSADTQKVAIIELTDGWYAVKAQLDPPLLAVLKNGRLTVGQKIILHGAELVGSPDACTPLEAPESLMLKISANSTRPARWYTKLGFFPDPRPFPLPLSSLFSDGGNVGCVDVIIQRAYPIQWMEKTSSGLYIFRNEREEEKEAAKYVEAQQKRLEALFTKIQEEFEEHEENTTKPYLPSRALTRQQVRALQDGAELYEAVKNAADPAYLEGYFSEEQLRALNNHRQMLNDKKQAQIQLEIRKAMESAEQKEQGLSRDVTTVWKLRIVSYSKKEKDSVILSIWRPSSDLYSLLTEGKRYRIYHLATSKSKSKSERANIQLAATKKTQYQQLPVSDEILFQIYQPREPLHFSKFLDPDFQPSCSEVDLIGFVVSVVKKTGLAPFVYLSDECYNLLAIKFWIDLNEDIIKPHMLIAASNLQWRPESKSGLLTLFAGDFSVFSASPKEGHFQETFNKMKNTVENIDILCNEAENKLMHILHANDPKWSTPTKDCTSGPYTAQIIPGTGNKLLMSSPNCEIYYQSPLSLCMAKRKSVSTPVSAQMTSKSCKGEKEIDDQKNCKKRRALDFLSRLPLPPPVSPICTFVSPAAQKAFQPPRSCGTKYETPIKKKELNSPQMTPFKKFNEISLLESNSIADEELALINTQALLSGSTGEKQFISVSESTRTAPTSSEDYLRLKRRCTTSLIKEQESSQASTEECEKNKQDTITTKKYI
binding result (RAD51 (purified) [1]): binds

B2: 2XMBP-BRC1–4-DBD (domain or fragment, human)
chain: WAGLLGPISNHSFGGSFRTASNKEIKLSEHNIKKSKMFFKDIEEQYPTSLACVEIVNTLALDNQKKLSKPQSINTVSAHLQSSVVVSDCKNSHITPQMLFSKQDFNSNHNLTPSQKAEITELSTILEESGSQFEFTQFRKPSYILQKSTFEVPENQMTILKTTSEECRDADLHVIMNAPSIGQVDSSKQFEGTVEIKRKFAGLLKNDCNKSASGYLTDENEVGFRGFYSAHGTKLNVSTEALQKAVKLFSDIENISEETSAEVHPISLSSSKCHDSVVSMFKIENHNDKTVSEKNNKCQLILQNNIEMTTGTFVEEITENYKRNTENEDNKYTAASRNSHNLEFDGSDSSKNDTVCIHKDETDLLFTDQHNICLKLSGQFMKEGNTQIKEDLSDLTFLEVAKAQEACHGNTSNKEQLTATKTEQNIKDFETSDTFFQTASGKNISVAKESFNKIVNFFDQKPEELHNFSLNSELHSDIRKNKMDILSYEETDIVKHKILKESVPVGTGNQLVTFQGQPERDEKIKEPTLLGFHTASGKKVKIAKESLDKVKNLFDEKEQGTSEITSFSHQWAKTLKYREACKDLELACETIEITAAPGGGSPYLSQFQQDKQQLVLGTKVSLVENIHVLGKEQASPKNVKMEIGKTETFSDVPVKTNIEVCSTYSKDSENYFETEAVEIAKAFMEDDELTDSKLPSHATHSLFTCPENEEMVLSNSRIGKRRGEPLILVGEPSIKRNLLNEFDRIIENQEKSLKASKSTPDGTIKDRRLFMHHVSLEPITCVPFRTTKERQEIQNPNFTAPGQEFLSKSHLYEHLTLEKSSSNLAVSGHPFYQVSATRNEKMRHLITTGRPTKVFVPPFKTKSHFHRVEQCVRNINLEENRQKQNIDGHGSDDSKNKINDNEIHQFNKNNSNQAVAVTFTKCEEEPLDLITSLQNARDIQDMRIKKKQRQRVFPQPGSLYLAKTSTLPRISLKAAVGGQVPSACSHKQLYTYGVSKHCIKINSKNAESFQFHTEDYFGKESLWTGKGIQLADGGWLIPSNDGKAGKEEFYRALCDTPGVDPKLISRIWVYNHYRWIIWKLAAMECAFPKEFANRCLSPERVLLQLKYRYDTEIDRSRRSAIKKIMERDDTAAKTLVLCVSDIISLSANISETSSNKTSSADTQKVAIIELTDGWYAVKAQLDPPLLAVLKNGRLTVGQKIILHGAELVGSPDACTPLEAPESLMLKISANSTRPARWYTKLGFFPDPRPFPLPLSSLFSDGGNVGCVDVIIQRAYPIQWMEKTSSGLYIFRNEREEEKEAAKYVEAQQKRLEALFTKIQEEFEEHEENTTKPYLPSRALTRQQVRALQDGAELYEAVKNAADPAYLEGYFSEEQLRALNNHRQMLNDKKQAQIQLEIRKAMESAEQKEQGLSRDVTTVWKLRIVSYSKKEKDSVILSIWRPSSDLYSLLTEGKRYRIYHLATSKSKSKSERANIQLAATKKTQYQQLPVSDEILFQIYQPREPLHFSKFLDPDFQPSCSEVDLIGFVVSVVKKTGLAPFVYLSDECYNLLAIKFWIDLNEDIIKPHMLIAASNLQWRPESKSGLLTLFAGDFSVFSASPKEGHFQETFNKMKNTVENIDILCNEAENKLMHILHANDPKWSTPTKDCTSGPYTAQIIPGTGNKLLMSSPNCEIYYQSPLSLCMAKRKSVSTPVSAQMTSKSCKGEKEIDDQKNCKKRRALDFLSRLPLPPPVSPICTFVSPAAQKAFQPPRSCGTKYETPIKKKELNSPQMTPFKKFNEISLLESNSIADEELALINTQALLSGSTGEKQFISVSESTRTAPTSSEDYLRLKRRCTTSLIKEQESSQASTEECEKNKQDTITTKKYI
binding result (RAD51 (purified) [2]): binds
